# Reference: PMC5985514
# pKd: −log10 of the molar value. Read-outs that look alike come from different tables or passages of the source.
# Experiments:
# Experiment in all cases: NMR titration
# [1] = molecular target: 3-fluorotyrosine labeled A34F variant of the B1 domain of protein G (T2Q background)
# [2] = molecular target: 3-fluorotyrosine labeled A34F variant of the B1 domain of protein G (T2Q background); remark: listed apart in the source
# [3] = molecular target: 3-fluorotyrosine labeled A34F variant of the B1 domain of protein G (T2Q background); remark: listed apart in the source
# [4] = molecular target: 3-fluorotyrosine labeled A34F variant of the B1 domain of protein G (T2Q background); remark: listed apart in the source
# [5] = molecular target: 3-fluorotyrosine labeled A34F variant of the B1 domain of protein G (T2Q background); remark: listed apart in the source
# [6] = molecular target: 3-fluorotyrosine labeled A34F variant of the B1 domain of protein G (T2Q background); remark: listed apart in the source
# [7] = molecular target: 3-fluorotyrosine labeled A34F variant of the B1 domain of protein G (T2Q background); remark: listed apart in the source
# [8] = molecular target: 3-fluorotyrosine labeled A34F variant of the B1 domain of protein G (T2Q background); remark: listed apart in the source
# [9] = molecular target: 3-fluorotyrosine labeled A34F variant of the B1 domain of protein G (T2Q background); remark: listed apart in the source
# [10] = molecular target: 3-fluorotyrosine labeled A34F variant of the B1 domain of protein G (T2Q background); remark: listed apart in the source
substance,measurement,setting,value
3-fluorotyrosine labeled A34F variant of the B1 domain of protein G (T2Q background) (domain or fragment),pKd,[1],4.77
same,pKd,[2],4.26
same,pKd,[3],4.02
same,pKd,[4],4.60
same,pKd,[5],4.35
same,pKd,[6],4.59
same,pKd,[7],4.07
same,pKd,[8],4.23
same,pKd,[9],4.10
same,pKd,[10],4.05
